The subject of the data set is MS2 coat protein. Nature of the data set: apparent KD of MS2 coat protein; designed switch direction (-1 OFF switch, 1 ON switch): -1; higher = weaker reporter binding. The gist of the method: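 An oligonucleotide input, 200 uM small-molecule ligand, or no input was present during titration of SNAP-549-labelled MS2 coat protein, which was doubled from 0.7 or 1.5 nM to 3 µM. Designed RNA switches had been transcribed on Illumina chips by stalled E. coli RNA polymerase. Apparent KD per design is the median over clusters of curves fitted to normalised cluster fluorescence.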

[1] abbreviates: Eterna round: R95, input ligand: FMN 200 uM.
Setting [2] is: Eterna round: R95, input ligand: microRNA oligo, concentration not stated.
[3] abbreviates: Eterna round: R95, input ligand: none.
Where [4] appears, read: input ligand: microRNA oligo, concentration not stated.

For the sequence “GACAGGGCAGGAUAUCGAGAUCCGCACAUGAGGAUCACCCAUGUUCAGUCGAAAGACUGACGAGAAGGGCCGUGUC [Omei Ex5 E4] (Eterna round: R97, puzzle: Exclusion 5)”, the “apparent KD of MS2 coat protein” value came to 1190 nM (input ligand: FMN 200 uM) and 1390 nM (input ligand: none).
Taken in the same sequence, the figures for “AUUUUGUGAGGAUAUUAGAAGUAGAAAGUUGGUAGUAUUGCUGAGAAGGCACAUGAGGAUCACCCAUGUACAAC [JR_Ex4_Sub036] (Eterna round: R97, puzzle: Exclusion 4)” were 17.6 nM and 16.7 nM.
As for “CAGUACUGCAGGCUUAGGGACAUGAGGAUCACCCAUGUUCGUCUUAUUGAUCUAGGUACGCUGACGUACCUAGAUCU [JL-sv1-2.15 Brourd mod] (puzzle: Sensor v3, turn-off variant 1)”, the “apparent KD of MS2 coat protein” value runs as follows: under setting [1], 16.9 nM; under setting [2], 19 nM; under setting [3], 18.1 nM.
In the case of “GGUUGGCGAGGAUAUACAUGAGGAUCACCCAUGUGAGAAAUAAAAGUGAGGAAGAAAAGUAGAAGGCGCUGACG [Mat - Exclusion 3 - Mod of Salish D3] (puzzle: Exclusion 3)”, the “apparent KD of MS2 coat protein” value amounted to 188 nM under setting [1], 50.4 nM under setting [2] and 83.9 nM under setting [3].
Take “GAUCAACAUGAGGAUCACCCAUGUGAGGAUAUAGACCUAAGGCGCAAGCUAUGGGACUCUAGAAGGCGCGGAAU [Eternabot (L2) Solution 93] (Eterna round: R97, puzzle: Exclusion 1)”: the “apparent KD of MS2 coat protein” value came to 40 nM (input ligand: FMN 200 uM) and 36.6 nM (input ligand: none).
Regarding “ACAGUAUGAUCCGCUCAACAUGAGGAUCACCCAUGUGAUGACUAGGAUAUUAGUAGCCCGCGCAUUAAGAAGGAGUUACGAUUG [Eternabot solution 33] (Eterna round: R96, puzzle: Exclusion NG 3)”, the “apparent KD of MS2 coat protein” value (input ligand: FMN 200 uM) worked out at 20 nM, the “apparent KD of MS2 coat protein” value under setting [4] came out at 13.9 nM and the “apparent KD of MS2 coat protein” value (input ligand: none) stood at 23.6 nM.
Take “GAUCACUGAGGAUAUACACAGAUACAAAGUAUCUGAUUGUGACAUGAGGAUCACCCAUGUAGAAGGCAGAGGUC [Omei Ex2 B6] (Eterna round: R97, puzzle: Exclusion 2)”: the “apparent KD of MS2 coat protein” value stood at 179 nM (input ligand: FMN 200 uM) and 31.1 nM (input ligand: none).
In the same order, the values of “GACCGGUAAGGAUAUGUAUCUUUCAGGACACUACCGAAGAUGCAGAAGGUACAUGAGGAUCACCCAUGUGGGCU [Eternabot (L1) Solution 36] (Eterna round: R97, puzzle: Exclusion 4)” are 227 nM and 75.8 nM.
As to “AGUACUAUCACGAAAGUGAUAGUACAAUGAGCUUUUGAAACAUGAGGAUCACCCAUGUCCUCGUAAGCUCGUCUUAA [Mat - Sensor v2 - var 2 - Mod - D179] (Eterna round: R96, puzzle: Sensor v2, turn-off variant 2)”, the “apparent KD of MS2 coat protein” value reads like this: (input ligand: FMN 200 uM) 25.7 nM; under setting [4], 438 nM; (input ligand: none) 28.6 nM.
Taken in the same sequence, the figures for “GAACUAAGGCAAAGCUUUAGUCGUACAUGAGGAUCACCCAUGUAGGAUAUGGUAGGCAAAGCAUACCAGAAGGACAGAGUGAUC [Mat - Exclusion NG 3 - Mod of JL - D62] (Eterna round: R96, puzzle: Exclusion NG 3)” were 387 nM, 363 nM and 220 nM.
On to “GUAGAGUCAGGAUAUACGAGAUCGAAAGAUCGGCGAUCCAUACAUGAGGAUCACCCAUGUAGAAGGGACUCUAC [ChP 11-04-2015 #5] (Eterna round: R96, puzzle: Exclusion 2)”, for which the “apparent KD of MS2 coat protein” value was determined as 177 nM (input ligand: FMN 200 uM), 14.8 nM under setting [4] and 19.1 nM (input ligand: none).
For “GGUGGACAUGAGGAUCACCCAUGUGAGGAUAUCGGCUGGUACGUGUUGGCUGGCAUCUCGAGAAGGCACAUAGG [Exclusion 1 V60] (puzzle: Exclusion 1)”, under setting [2], the “apparent KD of MS2 coat protein” value came out at 102 nM.
In the case of “AGUACUAACACGAAAGUGUUAGUACAAUAAGCUUGUGUAACAUGAGGAUCACCCAUGUCCUCAUAAGCUCGUCUUAU [salish99_TOv2_r3_043] (puzzle: Sensor v3, turn-off variant 2)”, the “apparent KD of MS2 coat protein” value under setting [1] turned out to be 50.6 nM, the “apparent KD of MS2 coat protein” value under setting [2] amounted to 38.3 nM and the “apparent KD of MS2 coat protein” value under setting [3] is 51.6 nM.
Turning to “UUUUUUUUGCGAGGAUAUGCUUUUAGUUAGUUAGCAGAAGGCGCGUUUCUUUUCUCCUCUUCUUACAUGAGGAUCACCCAUGUU [JR_ExcNG1_Sub034] (Eterna round: R96, puzzle: Exclusion NG 1)”, the “apparent KD of MS2 coat protein” value was 55.7 nM (input ligand: FMN 200 uM), 36.7 nM under setting [4] and 54.1 nM (input ligand: none).
For “GUGAUAACCAAGCUAGCCAACAUGAGGAUCACCCAUGUGUUCGAUAUGCAACAGGUAUGAUCUUAAUUUGCUCGAUC [Eternabot (Original) Solution 20] (Eterna round: R97, puzzle: Sensor, turn-off variant 1)”, the “apparent KD of MS2 coat protein” value runs as follows: (input ligand: FMN 200 uM) 44.3 nM; (input ligand: none) 48.5 nM.
In the same order, the values of “AGAUUGAAUGAGGAUAUCGUUGCGGGUACGUAGCGAGAAGGCAUGACAUGAGGAUCACCCAUGUAGUGUGGGUU [JR_Ex6_Sub019] (Eterna round: R97, puzzle: Exclusion 6)” are 805 nM and 336 nM.
As for “UCUAGUUGGUAAGGAUAUCCUACAUUGUUCUGGCCCGGGCAUGCUACAUGAGGAUCACCCAUGUGGGAGAAGGUGCGUCAUUGC [Design 21] (Eterna round: R96, puzzle: Exclusion NG 2)”, the “apparent KD of MS2 coat protein” value (input ligand: FMN 200 uM) was found to be 44.6 nM, the “apparent KD of MS2 coat protein” value under setting [4] came out at 32.2 nM and the “apparent KD of MS2 coat protein” value (input ligand: none) was 61.9 nM.
In the same order, the values of “GUGGUCUAUGUAGGAUAUACGUUUGUGCGAUGCGUAGAAGGACAUGAGGAUCACCCAUGUGUGCGAGGAUCACCCGUGUGUUGU [double] (Eterna round: R96, puzzle: Exclusion NG 1)” are 158 nM, 83.9 nM and 100 nM.
Take “GUUAGACAUGAGGAUCACCCAUGUGAGGAUAUGAUGCGAUCGUGCUGACAUGAUCGCAUCAGAAGGCACAUAUG [Mat - Mod of JL D66] (puzzle: Exclusion 1)”: under setting [2], the “apparent KD of MS2 coat protein” value was determined as 95.7 nM.
Take “CAGUACUGAGGAUAUACAUGAGGAUCACCCAUGUUUUCCAGCUAGGAUACUAGCAAGUGUAGAAGGCAGUACUG [Mat - Exclusion 3 - Eli Mod - D6] (Eterna round: R97, puzzle: Exclusion 3)”: the “apparent KD of MS2 coat protein” value amounted to 273 nM (input ligand: FMN 200 uM) and 24.5 nM (input ligand: none).
Regarding “AGACAUGAGGAUCACCCAUGUAGUGGUCCUGGUACGCGAACGUAGGAUAUAUACUGGAUUCCAAUGUAGAAGGACGACACCGCG [Tetege] (Eterna round: R96, puzzle: Exclusion NG 3)”, the “apparent KD of MS2 coat protein” value (input ligand: FMN 200 uM) was 90 nM, the “apparent KD of MS2 coat protein” value under setting [4] stood at 112 nM and the “apparent KD of MS2 coat protein” value (input ligand: none) was 149 nM.
On to “GGUGCGUAUGUGAGGAUAUGCUGGUCCUUGGAUCAGCAGAAGGCACAUGAGGAUCACCCAUGUGGUGUCGUACA [salish99_Bmod_Ex4_014] (puzzle: Brourd's mod of Exclusion 4)”, for which the “apparent KD of MS2 coat protein” value under setting [2] came out at 255 nM.
For “UAUCGGGACUGAGGAUAUUCGUUCGAACACGAAGAAGAAGGUAGUGUCAGGGACAUGAGGAUCACCCAUGUGAUUUCAGUCCCA [JL ViennaUCT Erinle mod 4] (Eterna round: R96, puzzle: Exclusion NG 1)”, the “apparent KD of MS2 coat protein” value reads like this: (input ligand: FMN 200 uM) 133 nM; under setting [4], 96.8 nM; (input ligand: none) 139 nM.
Taken in the same sequence, the figures for “GUACUGAAGCUUUGCUUUAGUCGUACAUGAGGAUCACCCAUGUAGGAUAUGGUAGGCUUUGCUUACUAGAAGGAUAGAGUGAUC [JL EXNG3 1.27] (Eterna round: R96, puzzle: Exclusion NG 3)” were 81.7 nM, 31.7 nM and 119 nM.
On to “GAGAAACAUGAGGAUCACCCAUGUAAGGAUAUGGCGAGAGCUGGAGUACUAGCGCCGUUCAGAAGGUACAUGAG [Eternabot (L2) Solution 27] (Eterna round: R97, puzzle: Exclusion 1)”, for which the “apparent KD of MS2 coat protein” value (input ligand: FMN 200 uM) was found to be 218 nM and the “apparent KD of MS2 coat protein” value (input ligand: none) stood at 95.9 nM.
For the sequence “GCCGAAAGUGUGAGGAUAUACCUAUGGAUACAUAGGUAGAAGGCACAUGAGGAUCACCCAUGUUCCUCAUCGGC [Eli bmx4 4.17] (Eterna round: R97, puzzle: Brourd's mod of Exclusion 4)”, the “apparent KD of MS2 coat protein” value was determined as 551 nM (input ligand: FMN 200 uM) and 92.8 nM (input ligand: none).
In the same order, the values of “UAAAAGAAAGUAAGGAUAUCUAAAUUGGAAAAGAGAGAGAAGGUACAUGAGGAUCACCCAUGUAGGGUAUCCUG [Ritien] (Eterna round: R97, puzzle: Brourd's mod of Exclusion 4)” are 41.8 nM and 42.2 nM.
Taken in the same sequence, the figures for “AGUAUGUCAGGAUAUCUCGGGUAGCCCACAAGGACUACCGAAGAGAAGGGACAUGAGGAUCACCCAUGUACCAU [EX4 B.24] (Eterna round: R97, puzzle: Exclusion 4)” were 19.9 nM and 21.4 nM.
“CAGUACUGAGGAUAUACAUGAGGAUCACCCAUGUGUUCCAGCUAGGAAACUAGCAAAGGUAGAAGGCAGUACUG [salish99_ex3_r3_065] (puzzle: Exclusion 3)”: the “apparent KD of MS2 coat protein” value runs as follows: under setting [1], 587 nM; under setting [2], 23.9 nM; under setting [3], 23.3 nM.
In the case of “GAUCAUGCAGGAUAUACAUUAACCAUGAAAACAUGGAUCAAACAUGAGGAUCACCCAUGUAGAAGGGCAUGAUC [Omei Ex2 A21] (Eterna round: R97, puzzle: Exclusion 2)”, the “apparent KD of MS2 coat protein” value was 46.6 nM (input ligand: FMN 200 uM) and 25.9 nM (input ligand: none).

(Values after the supplement of paper PMC9170038.)
